# Laboratory results published in patent publication US20230192768A1 (published 2023).
# Where no end group is shown, it is not given here.
# B1: peptide 632 (peptide)
# peptide: HYIDFRW
# modifications: also: FITC label, place not given here
# notes: Chemically synthesized peptide; It was used in the ELISA as the FITC-labeled peptide; also called TNF-α antagonist peptide; antagonist peptide
# Target: tumor necrosis factor alpha (TNF-α) protein
# Test: ELISA: plate coated with 2 µg/ml TNF-α, FITC-labeled peptide titrated, HRP anti-FITC antibody, OD 410 nm, fitted in GraphPad Prism 5
# Chain of tumor necrosis factor alpha (TNF-α) protein (chain, as listed by the source): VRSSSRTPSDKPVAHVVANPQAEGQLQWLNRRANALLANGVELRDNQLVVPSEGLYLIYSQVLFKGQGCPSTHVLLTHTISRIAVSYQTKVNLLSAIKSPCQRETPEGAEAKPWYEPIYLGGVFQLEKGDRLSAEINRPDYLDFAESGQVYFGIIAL
binder,measurement,value
B1,Kd,138 nM
